# B1: Eukaryotic translation initiation factor 4E1 (Drosophila melanogaster (Fruit fly)), P48598 (parent)
# chain: MQSDFHRMKNFANPKSMFKTSAPSTEQGRPEPPTSAAAPAEAKDVKPKEDPQETGEPAGNTATTTAPAGDDAVRTEHLYKHPLMNVWTLWYLENDRSKSWEDMQNEITSFDTVEDFWSLYNHIKPPSEIKLGSDYSLFKKNIRPMWEDAANKQGGRWVITLNKSSKTDLDNLWLDVLLCLIGEAFDHSDQICGAVINIRGKSNKISIWTADGNNEEAALEIGHKLRDALRLGRNNSLQYQLHKDTMVKQGSNVKSIYTL
# partner: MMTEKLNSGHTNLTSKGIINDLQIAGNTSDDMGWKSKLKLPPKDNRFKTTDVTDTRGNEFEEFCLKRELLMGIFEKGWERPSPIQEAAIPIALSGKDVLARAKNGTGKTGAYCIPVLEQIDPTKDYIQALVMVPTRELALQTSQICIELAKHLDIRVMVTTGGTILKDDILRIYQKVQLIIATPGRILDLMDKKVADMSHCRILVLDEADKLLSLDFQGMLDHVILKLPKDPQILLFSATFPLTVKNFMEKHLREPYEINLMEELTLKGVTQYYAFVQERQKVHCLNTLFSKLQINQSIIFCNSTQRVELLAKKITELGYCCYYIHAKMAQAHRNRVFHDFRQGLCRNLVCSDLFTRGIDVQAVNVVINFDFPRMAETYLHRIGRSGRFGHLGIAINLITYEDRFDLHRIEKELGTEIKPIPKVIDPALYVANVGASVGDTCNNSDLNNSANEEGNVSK
# Variants of: B1
# Conditions: with ddx6_drome me31B
row,effect of a mutation on the interaction,Variant
1,disrupting interaction strength,MQSDFHRMKNFANPKSMFKTSAPSTEQGRPEPPTSAAAPAEAKDVKPKEDPQETGEPAGNTATTTAPAGDDAVRTEHLYKHPLMNVWTLWYLENDRSKSWEDMQNEITSFDTVEDFASLYNHIKPPSEIKLGSDYSLFKKNIRPMWEDAANKQGGRWVITLNKSSKTDLDNLWLDVLLCLIGEAFDHSDQICGAVINIRGKSNKISIWTADGNNEEAALEIGHKLRDALRLGRNNSLQYQLHKDTMVKQGSNVKSIYTL [W117A]

# Source: IntAct's records for PubMed 36638908
